This note sets out measurements from publication PMC8595662 (Nature Communications, 2021).

Test [1] concerns the target T1, EBV gH/gL (gH 19-679 linked to gL 24-137 by (G4S)3) (Epstein-Barr virus (human …)).
T1 construct: also called gH/gL WT; source: 293F, transfected, purified (Ni-NTA, SEC); not shown: HIS Tag, C-terminal, kept
In words: SPR. The note with it: both partners purified.

Test [2] deals with T2, EBV gH/gL on the surface of CHO-K1 effector cells (Epstein-Barr virus, UniProt P03231;P03212).
T2 construct: also called gH/gL and gB fusion machinery
In words: flow cytometry on cells. The note with it: one partner purified. (In general: Flow cytometry measures light scatter and fluorescence of single cells or particles in a stream.)

B1: AMMO1 (antibody, V domains shown)
VH: QVQLVQSGADVKKPGASVKVSCKASGYTFIHFGISWVRQAPGQGLEWMGWIDTNNGNTNYAQSLQGRVTMTTDTSTGTAYMELRSLSTDDTAVYFCARALEMGHRSGFPFDYWGQGVLVTVSP
VL: SYELTQPPSVSVAPGQRATITCGGHNIGAKNVHWYQQKPGQAPVLVIQYDSDRPSGIPERFSGSNSGSTATLTISRVEAGDEADYYCQVWDSGRGHPLYVFGGGTKVTVL
By koff is commonly meant the first-order rate constant of dissociation. Read a low koff as a long-lived complex. Broadly, the kon is a measure of how fast the partners come together. A lower kon goes with slower complex formation. Take B1: in test [1], the koff stood at 8.5e-05 s⁻¹ and the kon came out at 577000 M⁻¹ s⁻¹.

B2: AMMO1, human gH/gL-specific neutralizing antibody (recombinant IgG1) (antibody, V domains shown)
VH: B1 VH
VL: B1 VL
In the case of B2, the binding result in test [2] is “binds”.
